# Test system: Hela cells
# Assay: Flow cytometry binding to Hela cells
# Assay type: cell-based
# Conditions: transfection supernatant, FIG. 6
# Method: The binding activity of the antibodies to Hela cells (ATCC® CCL-2, provided by COBIOER) and to RPTEC/TERT1 cells (ATCC® CRL-4031, provided by COBIOER) was tested by flow cytometry using the transfection supernatants. Briefly, target cells were digested with 0.02% EDTA-2Na, centrifuged at 1500 rpm for 3 mins, and resuspended with PBS. After counting, the cells were added to a 1.5 ml centrifuge tube with 1×10^6 cells per tube, centrifuged at 1500 rpm for 5 minutes, and the supernatant was discarded. Then all the operations were carried out on an ice bath. 100 μL of transfection supernatant was added to each 1.5 ml centrifuge tube. Blank cells, blank cells plus secondary antibody, medium and HEK293 supernatant were set up as the controls. The reaction was performed on an ice bath for 1 hour. Then the cells were pelleted and washed twice with PBS. The secondary antibody, goat anti-Human IgG (PE, abcam, ab98596), was diluted (1:200) and added using 100 μL per tube. The reaction was performed on an ice bath for 1 hour in the dark. The cells were pelleted again and washed twice with PBS, resuspended in 300 μL PBS, and FL2 fluorescence readings were measured by cytometry. The results were analyzed by FlowJoTM10 software.
# Anti-FOLR1 antibody binding to Hela and RPTEC/TERT1 cells was tested by FACS. The study was carried out as described above. […]
molecule,measurement,value
"F40: anti-FOLR1 antibody clone; ""Clone F40 has a different HCDRs and LCDRs, and with different HFR and LFR"" (antibody, V domains shown) VH: EVQLLESGGGVVQPGRSLRLSCAASGFTFSSYAMHWVRQAPGKGLEWVAVISYDGSNKYYADSVKGRFIISRDNSKNTVYLQMNSLRAEDTAVYYCARPTYVFTYTGSSFDYWGQGTQVTVSS VL: DIQVTQSPSSLSASLGDTVSITCRASRGLTDSVAWYQQKPGQAPKLLIYAASTLQSGVPSRFGGSGSGSYFTLTITSLQPEDVATYYCQNYKSAPWTFGQGTKVEIK",Hela cell binding,weakly positive
